Source: patent publication US20200109446A1

How the values were obtained:
[1] = biological target: Cascade lacking the Cse1 subunit (T. fusca); experiment: EMSA, target DNA with a changed PAM and a mismatch at position +1
[2] = biological target: Cascade lacking the Cse1 subunit (T. fusca); experiment: EMSA, target DNA with a mismatch to the crRNA at position +1
[3] = system: T. fusca Type I-E CRISPR-Cas (Cascade) effector complex

free Cse1 (T. fusca) was tested, and the percent of Cascade complexes converted to the faster-migrating species (Cascade lacking Cse1) [1] was 100% and the percent of Cascade complexes converted to the faster-migrating species (Cascade lacking Cse1) [2] was 80%.

With T. fusca Cas3 the Cas3 nuclease activity [3] was “impaired Cas3 recruitment also reduced Cas3 nuclease activity when ATP and Co^+2 were added to the reaction mixtures”.
